From patent US20240109974A1 (SHANDONG SIMCERE BIOPHARMACEUTICAL, published 2024)

Assays:
[1] = target: T1, human TNFR2 on the surface of CHO-TNFR2 cells (human, UniProt P20333 23-461); assay: competition flow cytometry on CHO-TNFR2 cells, competitor TNFα-biotin; IC50 against 219-WT
T1 construct: whole, on cells
T1 sequence (looked up): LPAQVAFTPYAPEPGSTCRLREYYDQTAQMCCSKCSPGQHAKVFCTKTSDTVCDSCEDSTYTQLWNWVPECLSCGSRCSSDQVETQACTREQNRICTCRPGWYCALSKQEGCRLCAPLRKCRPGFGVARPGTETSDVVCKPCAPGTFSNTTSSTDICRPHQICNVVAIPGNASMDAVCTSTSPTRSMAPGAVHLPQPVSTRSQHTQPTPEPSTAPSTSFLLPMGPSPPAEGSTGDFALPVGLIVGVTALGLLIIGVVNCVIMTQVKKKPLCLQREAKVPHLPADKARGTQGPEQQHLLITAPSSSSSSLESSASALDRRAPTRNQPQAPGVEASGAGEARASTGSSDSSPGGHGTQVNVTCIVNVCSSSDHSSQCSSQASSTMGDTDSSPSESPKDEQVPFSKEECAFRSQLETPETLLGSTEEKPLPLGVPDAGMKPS
Protocol: (§1) CHO stable cells highly expressing human TNFR2 were used for the experiment (the same as CHO-TNFR2 in Example 4). The CHO-TNFR2 cells were digested, washed twice with DPBS, then stained with Live/Dead (L/D) (20 minutes at room temperature), and plated at a density of 1×10⁵ cells/50 μl/well. A test anti-TNFR2 antibody was diluted to 6 μg/ml with a staining buffer as the starting concentration: the antibody was subjected to 3.33-fold gradient dilution, with a total of 7 concentration points. The diluted antibody was added to the plated cells at 50 μl/well, and the mixture was mixed well by gentle pipetting, and incubated at 4° C. for 30 minutes. Then the diluted 100 ng/ml of human TNFα-biotin was added at 100 μl/well, and the mixture was mixed well by gentle pipetting, and then incubated at 4° C. for 30 minutes. The mixture was washed twice with a staining buffer, and then 0.12 μg/ml PE-streptavidin (BioLegend, Cat #405204) was added at 100 μl/well; the resulting mixture was incubated at 4° C. for 30 minutes. The mixture was washed twice with a staining buffer, and then 150 μl of staining buffer was added to resuspend the cells; signals were detected by a flow cytometer (Thermo Attune NxT). The inhibitory curve of an antibody was drawn with antibody concentration as the abscissa and corresponding MFI value as the ordinate, and fitted with four parameters (GraphPad Prism9) to calculate the IC50 value. The smaller the IC50 value, the stronger the ability of an antibody to inhibit the binding of human TNFα to human TNFR2. The blocking effect of a humanized antibody was normalized to its corresponding human-murine chimeric WT antibody. The higher the percentage value, the better the inhibitory effect of the humanized antibody.

[2] = target: T2, human TNFR2 (Novoprotein, Cat #C830) (human, UniProt P20333 23-257, limits assumed); assay: competition ELISA, competitor human TNFα-Biotin; AUC against 001-WT
T2 construct: construct not described; also called human TNFR2 protein
T2 sequence (looked up): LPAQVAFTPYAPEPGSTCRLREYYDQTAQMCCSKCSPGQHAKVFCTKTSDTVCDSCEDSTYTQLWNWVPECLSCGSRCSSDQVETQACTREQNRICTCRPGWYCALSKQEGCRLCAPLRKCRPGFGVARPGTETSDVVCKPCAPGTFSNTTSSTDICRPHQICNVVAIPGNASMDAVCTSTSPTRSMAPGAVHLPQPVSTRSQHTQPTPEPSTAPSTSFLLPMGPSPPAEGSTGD
Protocol: 1 μg/ml human TNFR2 (Novoprotein, Cat #C830) was pre-coated with 100 μl/well […] in an ELISA plate. All the test TNFR2 antibodies were subjected to 2.5-fold gradient dilution from the highest concentration of 30 μg/ml; the diluted antibodies were mixed with 15 ng/ml human TNFα-Biotin (Acro Biosystem, Cat #TNA-H82E3) in equal volume, respectively; the resulting mixture was added to the ELISA plate at 100 μl/well, and incubated with shaking at room temperature for 2.0 hours. The plate was washed, and then a Streptavidin-HRP working solution (diluted at 1:10000) was added at 100 μl/well, and the mixture was incubated with shaking at room temperature for 40 minutes. The plate was washed again, and then the substrate TMB of HRP was added to develop colour. A stop solution was added to stop the reaction, and then a microplate reader (MD 13) was used to read the absorbance value. The inhibitory curve of an antibody was drawn with antibody concentration as the abscissa and corresponding OD value as the ordinate, and fitted with four parameters (GraphPad Prism9) to calculate the IC50 value. The smaller the IC50 value, the stronger the ability of an antibody to inhibit the binding of human TNFα to human TNFR2. The blocking effect of a humanized antibody was normalized to its corresponding human-murine chimeric antibody WT. The higher the percentage value, the better the inhibitory effect of the humanized antibody.

[3] = target: T1, human TNFR2 on the surface of CHO-TNFR2 …; assay: competition flow cytometry on CHO-TNFR2 cells, competitor TNFα-biotin; IC50 against 001-WT
Protocol: as §1

[4] = target: T1, human TNFR2 on the surface of CHO-TNFR2 …; assay: competition flow cytometry on CHO-TNFR2 cells, competitor TNFα-biotin; AUC against 001-WT
Protocol: as §1

Binder	% Relative activity (WT antibody/test antibody) [1]	% Relative activity (WT antibody/test antibody) [2]	% Relative activity (WT antibody/test antibody) [3]	% Relative activity (WT antibody/test antibody) [4]
219-Hu3 (antibody, V domains shown, also called VH5 + VL5) VH: QVQLVQSGAEVKKPGSSVKVSCKASGYSFTNYWMNWVRQAPGQGLEWMGMIHPSDTETRLNQNFKDRVTITADKSTSTAYMELSSLRSEDTAVYYCARGEGLGAARSVSMDYWGQGTLVTVSS VL: DIQMTQSPSSLSASVGDRVTITCRASQDISNYLNWYQQKPDGTVKLLIYYTAILHSGVPSRFSGSGSGTDYSLTISSLQPEDFATYFCQQGNTLPWTFGQGTKVEIK	120%	–	–	–
001-Hu5 (antibody, V domains shown, Humanized form of #001; also called VH1 + VL4) VH: EVQLVESGGGLVQPGGSLRLSCAASGFAFSTYDLSWVRQAPGKGLEWVAYINNGGISTYYSDTVKGRFTISRDNAKNTLYLQMNSLRAEDTAVYYCVRGPFYGSANYFDYWGQGTLVTVSS VL: DIQMTQSPSSLSASVGDRVTITCRTSESIYSNLPWYQQKPGKSPKLLVYDATKLAEGVPSRFSGSGSGTDYTLTISSLQPEDFATYYCQHFWVTPWTFGQGTKVEIK	–	98%	86.2%	93.1%
001-Hu2 (antibody, V domains shown, Humanized form of #001; also called VH2 + VL2) VH: EVQLVESGGGLVQPGGSLRLSCAASGFAFSTYDLSWVRQAPGKGLEWVAYINNGGISTYYSDTVKGRFTISRDNAKNSLYLQMNSLRAEDTAVYYCVRGPFYGSANYFDYWGQGTLVTVSS VL: DIQMTQSPSSLSASVGDRVTITCRTSESIYSNLPWYQQKPGKSPKLLIYDATKLAEGVPSRFSGSGSGTDFTLTISSLQPEDFATYYCQHFWVTPWTFGQGTKVEIK	–	97.1%	84.3%	95.8%
001-Hu1 (antibody, V domains shown, Humanized form of #001; also called VH1 + VL1) VH: EVQLVESGGGLVQPGGSLRLSCAASGFAFSTYDLSWVRQAPGKGLEWVAYINNGGISTYYSDTVKGRFTISRDNAKNTLYLQMNSLRAEDTAVYYCVRGPFYGSANYFDYWGQGTLVTVSS VL: DIQMTQSPSSLSASVGDRVTITCRTSESIYSNLPWYQQKPGKAPKLLLYDATKLAEGVPSRFSGSGSGTDYTLTISSLQPEDFATYYCQHFWVTPWTFGQGTKVEIK	–	98%	98.3%	97.4%
001-Hu4 (antibody, V domains shown, Humanized form of #001; also called VH2 + VL4) VH: EVQLVESGGGLVQPGGSLRLSCAASGFAFSTYDLSWVRQAPGKGLEWVAYINNGGISTYYSDTVKGRFTISRDNAKNSLYLQMNSLRAEDTAVYYCVRGPFYGSANYFDYWGQGTLVTVSS VL: DIQMTQSPSSLSASVGDRVTITCRTSESIYSNLPWYQQKPGKSPKLLVYDATKLAEGVPSRFSGSGSGTDYTLTISSLQPEDFATYYCQHFWVTPWTFGQGTKVEIK	–	101%	92.3%	93.7%
001-Hu3 (antibody, V domains shown, Humanized form of #001; also called VH1 + VL3) VH: EVQLVESGGGLVQPGGSLRLSCAASGFAFSTYDLSWVRQAPGKGLEWVAYINNGGISTYYSDTVKGRFTISRDNAKNTLYLQMNSLRAEDTAVYYCVRGPFYGSANYFDYWGQGTLVTVSS VL: DIQMTQSPSSLSASVGDRVTITCRTSESIYSNLPWYQQKPGKAPKLLIYDATKLAEGVPSRFSGSGSGTDYTLTISSLQPEDFATYYCQHFWVTPWTFGQGTKVEIK	–	99.4%	100%	97.8%

Further lines, results first:

% Relative activity (WT antibody/test antibody) [1]	% Relative activity (WT antibody/test antibody) [2]	% Relative activity (WT antibody/test antibody) [3]	% Relative activity (WT antibody/test antibody) [4]	Binder
138%	–	–	–	219-Hu5 (antibody, V domains shown, also called VH7 + VL5) VH: QVQLVQSGAEVKKPGSSVKVSCKASGYSFTNYWMNWVRQAPGQGLEWMGMIHPSDTETRLNQNFKDRVTITVDKSTSTAYMELSSLRSEDTAVYYCARGEGLGAARSVSMDYWGQGTLVTVSS VL: DIQMTQSPSSLSASVGDRVTITCRASQDISNYLNWYQQKPDGTVKLLIYYTAILHSGVPSRFSGSGSGTDYSLTISSLQPEDFATYFCQQGNTLPWTFGQGTKVEIK
124%	–	–	–	219-Hu4 (antibody, V domains shown, also called VH6 + VL5) VH: QVQLVQSGAEVKKPGSSVKVSCKASGYSFTNYWMNWVKQAPGQGLEWIGMIHPSDTETRLNQNFKDKATLTVDKSTSTAYMELSSLRSEDTAVYYCARGEGLGAARSVSMDYWGQGTLVTVSS VL: DIQMTQSPSSLSASVGDRVTITCRASQDISNYLNWYQQKPDGTVKLLIYYTAILHSGVPSRFSGSGSGTDYSLTISSLQPEDFATYFCQQGNTLPWTFGQGTKVEIK
127%	–	–	–	219-Hu2 (antibody, V domains shown, also called VH4 + VL5) VH: QVQLVQSGAEVKKPGSSVKVSCKASGYSFTNYWMNWVRQAPGQGLEWMGMIHPSDTETRLNQNFKDKATITADKSTSTAYMELSSLRSEDTAVYYCARGEGLGAARSVSMDYWGQGTLVTVSS VL: DIQMTQSPSSLSASVGDRVTITCRASQDISNYLNWYQQKPDGTVKLLIYYTAILHSGVPSRFSGSGSGTDYSLTISSLQPEDFATYFCQQGNTLPWTFGQGTKVEIK
106%	–	–	–	219-Hu1 (antibody, V domains shown, also called VH3 + VL5) VH: QVQLVQSGAEVKKPGASVKVSCKASGYSFTNYWMNWVRQAPGQRLEWMGMIHPSDTETRLNQNFKDRVTITRDTSASTAYMELSSLRSEDTAVYYCARGEGLGAARSVSMDYWGQGTLVTVSS VL: DIQMTQSPSSLSASVGDRVTITCRASQDISNYLNWYQQKPDGTVKLLIYYTAILHSGVPSRFSGSGSGTDYSLTISSLQPEDFATYFCQQGNTLPWTFGQGTKVEIK
